Measured values published in the nanobody polyreactivity screen of Harvey et al. (2022).

assay: yeast display, Sf9 membrane polyspecificity reagent, FACS + sequencing; frameworks hold sequencing errors
Outline: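 A nanobody's polyreactivity label depends on the gate it was sorted from. Yeast display cells were stained with 10% biotinylated, detergent-solubilized Sf9 membrane reagent for 1 hour at 4 °C, enriched on streptavidin microbeads and sorted by FACS. The low and high (top ~1%) gates were set on anti-HA fluorescence for expression and streptavidin fluorescence for reagent binding.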

Row | Sequence | polyreactivity (PSR sort gate)
1 | QVQLVESGGGLVQAGGSLRLICAASGLIFVSYAMGWSRQAPGKERELVAAITYGGDSTFYADSVKGRFTISRDNAKNTVYLQMNSLKPEDTAVYYCNADIWFIWHSFGWGYDYWGQGTQVTVSS | low polyreactivity
2 | QVQLVESGGGLVQAGGSLRLICAASGLTFDVNAMGWYRQAPGKERELVAAITADDGSTYYADSVKGRFTISRDNAKNTVYLQMNSLKPEDTAVYYCNADTRTQGPYSAPYYREMNYWGQGTQVTVSS | low polyreactivity
3 | QVQLVESGGGLVQAGGSLRLICAASGLTFDYYDMGWYRQAPGKERELVASITWRGSSTYYADSVKGRFTISRDNAKNTVYLQMISLKPEDTAVYYCAARYRWSEWRPYYYWGQGTQVTVSS | high polyreactivity
4 | QVQLVESGGGLVQAGGSLRLICAASGLTFYRYAMGWYRQGPGKERELVAGITRRGGSTYYADSVKGRFTISRDKPKNTVYLPMNSLKPEDTAVYYCNVDGISSSYPEMDYWGQGTQVTVSS | low polyreactivity
5 | QVQLVESGGGLVQAGGSLRLICAASGNIFTTYAMGWYRQAPGKERELVAAISRTGGRTSYADSVKGRFTISRDNAKNTVYLQMNSLKPEDTAVYYCAAVPTVRPSAPRARILSDYWGQGTQVTVSS | high polyreactivity
6 | QVQLVESGGGLVQAGGSLRLICAASGNIFVPSAMGWYRQAPGKERELVAAINGGGSTNYADSVKGRFTISRDNAKNTVYIQMISLKPEDTAVNYCAAVWYFLSLWYDYWGQGTQVTVSS | high polyreactivity
7 | QVQLVESGGGLVQAGGSLRLICAASGNTFNFYAMGSYRQAPGKERELVAGISGSNTYYADSVKGRFTISRDNAKNTVYLQMNSLKPEDTAVYYCAKRAIWRYGYWGQGTQVTVSS | high polyreactivity
8 | QVQLVESGGGLVQAGGSLRLICAASGNTFVDYAMGWYRQAPGKELELVAAISRSGGSTYADSVKGRFTISRDNAKNTVYLQMNSLKPEDTAVYYCAAYSGVGYLWFDYWGQGTQVTVSS | low polyreactivity
9 | QVQLVESGGGLVQAGGSLRLICAASGRIFGDNGMGWYTQAPGKERELVTYADSVKGRFTISRDNAKNTVYLQMNSLKPEDTAVYYCNKVPPRFSGLDENYWGQGTQVTVSS | low polyreactivity
10 | QVQLVESGGGLVQAGGSLRLICAASGRIFKLYAMGWYRQAPGKERELVASINSGGGSTNYADSVKGRFTISRDNAKNTVYLQMNSLKPEDPAVYYCAKCYRRVYGPFFYWGQGTQVTVSS | low polyreactivity
11 | QVQLVESGGGLVQAGGSLRLICAASGRIFRYNAMGWYRQAPGKERELVAAISSVGSTNYADSVKGRFTISRDNAKNTVYLQMNSLKPEDTAVYYCNAVVRSYVKTYRYYKVDYWGQGTQVTVSS | high polyreactivity
12 | QVQLVESGGGLVQAGGSLRLICAASGRIFSLYAMGWYRQAPGKERELVAAITWSSGSTYYADSVKGRFTISRDNAKNTVYLQMNSLKPEDTAVYYCNAVWRTRDYDYWGQGTQVTVSS | low polyreactivity
13 | QVQLVESGGGLVQAGGSLRLICAASGRIFYDNALGWYRQAPGKERELVAAISESGTSTYYADSVKGRFTISRDNAKNTVYLQMNSLKPEDTAVYYCAAYFTWNRKVFYYWGQGTQVTVSS | high polyreactivity
14 | QVQLVESGGGLVQAGGSLRLICAASGRIWVNAMGWYIQAPGKQREFVAAISTSSASTYYADSVKGRFTISRDNAKNTVYLQMNSLKPEDTAVYYCAARYLGKKYYYWGQGTQVTVSS | high polyreactivity
15 | QVQLVESGGGLVQAGGSLRLICAASGRPFTYNMGWYRQAPGKERELVAANDLRRLCEGALHNFTRQCEEYRLFTDVQPETGRYPVYYCNADPAWIWYTFDYWGQGTQVTVSS | low polyreactivity
16 | QVQLVESGGGLVQAGGSLRLICAASGRTCRTYTMGLYRQATGKEREFVAAITSSGASTYYADSVKGRFTISRDKAKNTVYLQMNSLKPEDTAVYYCAARPRPRSANGMYYWGQVTQVTVSS | high polyreactivity
17 | QVQLVESGGGLVQAGGSLRLICAASGRTFAYYAMGWYRQAPGKERELVAAISSAGRTYYADSVKGRFTISRDNAKNTVYLHMNSLKPEDTSDYYCAVRWLTQFNGRYGSWGQGTQVTVSS | high polyreactivity
18 | QVQLVESGGGLVQAGGSLRLICAASGRTFGYYTMGWYRPAPGKERELVARINYIGSSTYYADSVKGRFTISRDNAKNTVYLQMNSLKPEDTAVYYCNADNARGRSGVRRYYWGQGTQVTVSS | high polyreactivity
19 | QVQLVESGGGLVQAGGSLRLICAASGRTFPYNAMGWYRQAPGKERELVAAISSGTRTDYADSVKGRFTISRDNAKNTVYLQMNSLKPEDTAVYYCAADYYHYLWRAYGFDYWGQGTQVTVSS | high polyreactivity
20 | QVQLVESGGGLVQAGGSLRLICAASGRTFRYYAMGWYRQAPGKERELVAAISASGGSTFYADSVKGRFTISRDNAKNTVYLQMNSLKPEDTAVYYCAAYHYSVFPYKQYDYWGQGTQVTVSS | high polyreactivity
21 | QVQLVESGGGLVQAGGSLRLICAASGRTFRYYAMGWYRQAPGKERELVASISDGGSTNYADSVKGRFTISRDNAKNTVYLQMNSLKPEDTAVYYCNAKAYVWYLYDEFGYWGQGTQVTVSS | low polyreactivity

Row | Sequence | polyreactivity (PSR sort gate)
22 | QVQLVESGGGLVQAGGSLRLICAASGRTFRYYTMGWYRQAPGKERELVAAISWRGGSTYYADSVKGRFTISRDNAKNTVYLQMNSLKPEDTAVYYCAAKRPKRYNEGYYWGQGTQVTVSS | high polyreactivity
23 | QVQLVESGGGLVQAGGSLRLICAASGRTFTHNAMGWSRQAPGKERELVAGITSGCSTNYADSVKGRFTISRDNAKNTVYLQMNSLKPEDTAVYYCNKVFFWSRYKGYYYWGQGTQVTVSS | high polyreactivity
24 | QVQLVESGGGLVQAGGSLRLICAASGRTFTYYDMGWYRQAPGKERELVAGITARGGSTYADSVKGRFTISRDNAKNTVYLQMNSLKPEDTAVYYCAADLYTSLDSTYDYWGQGTQVTVSS | low polyreactivity
25 | QVQLVESGGGLVQAGGSLRLICAASGRTFVKNAMGWSRQAPGKERELVAAIDRGSRTNYADSVKGRFTISRDNAKNTVYLQMNSLKPEDTAVYYCATRYRVRDDQTGTWSIFGYWGQGTQVTVSS | high polyreactivity
26 | QVQLVESGGGLVQAGGSLRLICAASGRTFYRNDMGWSRQAPGKERELVAAISGSGGTTYYADSVKGRFTISRYNAKNTVYLQMNSLNPEDTAVDYCAVDGNFFGEVRPYDYWGQGTQVTVSS | low polyreactivity
27 | QVQLVESGGGLVQAGGSLRLICAASGRTFYYYGMGWYRQAPGKERELVASITNGGNTNYADSVKGRFTISRDNAKNPVYLQKHSLYPEDTAVYYCAKDVPYWRPVVRYDYWGQGTQVTVSS | low polyreactivity
28 | QVQLVESGGGLVQAGGSLRLICAASGRTLWWYAMGWYRQAPGKESELVAAIDYSDGNTYYADSVKGRFTISRDYAKNTVYLQMNSLKPEDTAVYFCAAEGYYNYGSYYWGQGTQVTVSS | high polyreactivity
29 | QVQLVESGGGLVQAGGSLRLICAASGRTLYLYAMGWSRQAPGKEPELVAAIDWRGTSTYYADSVKGRFTISRDNAKNTVYLQMNSLKPEDTAFYYCNARFRSYLRWYQRDYWGQGTQVTVSS | low polyreactivity
30 | QVQLVESGGGLVQAGGSLRLICAASGRTYHYYTLGWYRQSPGKERELVARISLGVGSTYYADSVKGRFTISRDNAKNTVDLQMYTLIPEDTAVYYCNAVWYKSFVKGVYGRVDWGQGTQVTVSS | low polyreactivity
31 | QVQLVESGGGLVQAGGSLRLICAASGSIFPFYAMGWYRQEPGKERELVAAITYSGGRTYYADSVKGRFTISRDNAKNTVYLQMNSLKPEDTAVYYCAVVVIFVRYGYWGQGTQVTVSS | low polyreactivity
32 | QVQLVESGGGLVQAGGSLRLICAASGSIFRLYAMGWYRPAPGKEREFVARIRWRGGSTNYADSVKGRFTISRDNAKNTVYLQMNCLKPVDTAVYYCAAKQGTVRAHTYVAWYDYWGQGTQVTVSS | high polyreactivity
33 | QVQLVESGGGLVQAGGSLRLICAASGSIFRLYAMGWYRQAPGKERELVAAIRWSGGRTYYADSVKGRFTISRDNAKNTVYLQMNSLKPEDTAVYYCAADYYLPAYPPQTFGYWGQGTQVTVSS | high polyreactivity
34 | QVQLVESGGGLVQAGGSLRLICAASGSIFRSYAMGWYRPAPGKERELVAAISSGGRTKYADSVKGRLTISRDNAKNTVYLQMNSLKPEDSAVYYCAARSVSATADFHYWGQGTQVTVSS | high polyreactivity
35 | QVQLVESGGGLVQAGGSLRLICAASGSIFRYYTMGWYRQGPGKERELVARISSSGSTNYADSVKGRFTISRDNAKNTVYLQMNSLKPEDTEVYYCAARAFSWAGYYYWGQGTQVTLSS | low polyreactivity
36 | QVQLVESGGGLVQAGGSLRLICAASGSIFSGYAMGWYRQAPGKERELVAAITTSGGSTYYADSVKGRFTISRENAKNTVYLPMNSLNPEDTSVYYCAAGWLYSRYARVYYWGQGTQVTLSS | high polyreactivity
37 | QVQLVESGGGLVQAGGSLRLICAASGSIFTSNVMGWYRQSPGKERELVAAITITGTTNYADSVKGRFTISRDNAKYTVYLLMNSLKPEDTAVYDCAARHKQHNRYDYWGQGTQVTVSS | low polyreactivity
38 | QVQLVESGGGLVQAGGSLRLICAASGSIFVGYAMGWYRQAPGKERELVAAISSNGGSTYYAYSVKGRFTISRDNAKNTVYLQMNSLKPEDTAVYYCAAGVRRVYASGHGAYGYWGQGTQVTVSS | low polyreactivity
39 | QVQLVESGGGLVQAGGSLRLICAASGSIFVLNAMGWYRQAPGKERELVAAITSGGSTYYADSVKGRFTISRDNAKNTVYLQMISLKPEDTAVYYCNALDLSPSYKYDYWGQGTQVTVSS | low polyreactivity
40 | QVQLVESGGGLVQAGGSLRLICAASGSIFWAYAMGWYRQAPGKERELVAAISSSGGRTYYADSVKGRFTISRDNAKNTVYFQMNSLNPEDTAVYYCAARSYSGYSPTFDYWGQGTQVTVSS | high polyreactivity
41 | QVQLVESGGGLVQAGGSLRLICAASGSIFYVYAMGWYRQSPGKERELDAAINTSGGSTFYADSVKGRFTISRDNAKNTVYLQMNSLKPEDTAVYYCAAERYRYRSTDTMGYWGQGTQVTVSS | low polyreactivity
